Results: patent US20110311550A1 (Scripps Research, published 2011)
Where a chain is given by its changes, count along the chain named.

B1: Fab V1 (Fab, V domains shown)
VH: VQLLEQSGAEVQKPGASVKVSCKPSGYIFTNFGISWVRQAPGQGLEWMAWINTYNGKTTYAQSLQGRVTLTTDPYTNTVFMELRSLRSDDTAVYYCARENEGEYVWGHFRSDYWGQGTLVTVSS
VL: ELTQSPSSLSASVGDRVTITCQASQDISNFLNWYQRRPGKAPNLLIYDATHLETGVPSRFSGSGFGTHFTLTINSLQPEDIGTYYCQHFDDVPSFTFGPGTKVDLKR
B2: Fab N1 (Fab, V domains shown)
VH: VQLLEQSGPEVKKPGDSLRISCKMSGDSLVTTWIGWVRQKPGQGLEWMGIINPGDSSTNIYPGDSATRYGPSFQGQVTISIDKSTSTAYLQWNAVKPSDTGIYYCARHVPVPISGTFLWREREMHDFGYFDDWGQGTLVIVSS
VL: ELTQSPGTLSLSPGERATLSCRASQSVSSSYLAWYQQKPGQAPRLLIYGASNRAAGIPDRFSGSGSGADFTLTISRLEPEDFAVYYCQQYGSSLITFGQGTRLEIKR
B3: Fab N2 (Fab, V domains shown)
VH: B2 VH with A94T
VL: ELTQSPGTLSLFPGERATLSCRASQSILGRYLAWYQQKGGRAPRLLIFGASKRATGIPDRFSGSGSGTDFTLTIGRLEPEDFAVYYCQHYGSSITFGQGTRLDIKR
B4: Fab N3 (Fab, V domains shown)
VH: VQLLEQSGAEVKKPGDSLRISCKMSGDSLVWIGWVRQKPGQGLEWMGIINPGDSATNIYPGDSDTRYGPSFQGQVTISIDKSTSTAYLQWNAVKASDTGIYYCARHVPVPISGTFLWREREMHDLGYFDDWGQGTLVIVSS
VL: not shown
B5: Fab N4 (Fab, V domains shown)
VH: B2 VH with A94N, P97A
VL: ELTLTQSPGTLSLSPGERATLSCRASQSVSNNYLAWYQQKPGQAPRLLIYGASSRATGIPDRFSGSGSGTGFTLIISRLEPEDFAVYYCQQYGSSSITFGQGTRLEIKR
B6: Fab O1 (Fab, V domains shown)
VH: VQLLEQSGAEVKKAGESVRLSCKASGYRFGDYWIAWVRQLPGRAPEWMGIIYPDDSDTKYSPSFQGQVTISADKSIRTTFLDWGSLKASDTAIYYCARGCLGAKCYYPHYYYGLDVWGQGTTVIVSS
VL: ELTQSPSSLSASVGDRVTITCRATQGIDNYLNWYQQKPGKPPRLLIYGASSLQSGVPSRFSGGGSGTHFTLTITNLQPEDFATYYCQQSYSTPPETFGQGTKVEIKR
B7: Fab P1 (Fab, V domains shown)
VH: EVQLLESGGGVVQPGGSLRLSCAASGFTFTSFTMHWVRQAPGKGLEWVALISHDGSNKDYADSVRGRFTVSRDNSKKMVYLQMSSLRPDDAAVYYCARGGPAYYTYSDTLTGYHNVVGDYWGQGTLVTVSS
VL: ELTQSPGTLSLSPGERATLSCRASQVRGFLAWFQQKPGQAPRLLIYGASNRAPGIPDRFSGSGSGTDFTLTISRLEPEDFAVYYCQQYGDSPPITFGQGTRLEIKR
B8: Fab P1a (Fab, V domains shown)
VH: B7 VH
VL: ELTQSPGTLSLSPGERATLSCRTSQSVSSTYLAWYQQKPGQPPRLLIYGASNRAPGIPDRFSGSGSGTDFTLTISRLEPEDFAVYYCQQYGDSPPITFGQGTRLDIKR
B9: Fab P2 (Fab, V domains shown)
VH: EVQLLESGGGVVQPGRSLRLSCAASGFTLDTFTMHWVRQSPGKGLEWVALISHDANNKDYADSVKGRFTISRDNSKKLVYLQMDSLRSEDTAVYYCARGGPAYYLYSDVLTGFHNVVGDYWGQGTLVTVSA
VL: not shown
B10: Fab P3 (Fab, V domains shown)
VH: EVQLLESGGGVVQPGKSLRLSCAVSGFTLNTFAMHWVRQVPGKGLEWVALTSHDGSRQDYADSVRGRFTISRDNSKSMVFLLMNSLRAEDTAVYYCVRGGPAYYTYNDVLTGYAYVVGDFWGQGTLVTVSS
VL: not shown
B11: Fab P4 (Fab, V domains shown)
VH: not shown
VL: ELTQSPGTLSLSPGERATLSCRASQSVSSSNLAWFQHKSGRAPRLLIYGASNRAPDIPDRFSGSGSGTDFTLSISRLEPEDFAVYYCQRYGDSPPITFGQGTRLEIKR

biological target: HCV E1E2 antigen, isolate UKN1B12.16 (hepatitis C virus, isolate UKN1B12.16); assay: ELISA, Fab on E1E2 antigen

Binder	OD 450 nm [OD 450 nm]
B1	0.16
B2	0.65
B3	0.81
B4	0.62
B5	1.06
B6	0.17
B7	0.26
B8	0.15
B9	0.59
B10	0.2
B11	0.59

biological target: HCV E1E2 antigen, isolate OH8 (hepatitis C virus, isolate OH8); assay: ELISA, Fab on E1E2 antigen

Binder	OD 450 nm [OD 450 nm]
B1	1.35
B2	1.13
B3	1.44
B4	1.32
B5	1.75
B6	0.44
B7	0.8
B8	0.24
B9	1
B10	0.36
B11	1.15

biological target: HCV E1E2 antigen, isolate CH35 (hepatitis C virus, isolate CH35); assay: ELISA, Fab on E1E2 antigen

Binder	OD 450 nm [OD 450 nm]
B1	0.77
B2	0.59
B3	0.82
B4	0.59
B5	1.03
B6	0.27
B7	0.27
B8	0.08
B9	0.47
B10	0.11
B11	0.52

biological target: HCV E1E2 antigen, isolate J6E3 (hepatitis C virus, isolate J6E3, UniProt P26660 192-383; P26660 384-750); assay: ELISA, Fab on E1E2 antigen

Binder	OD 450 nm [OD 450 nm]
B2	0.64
B3	0.92
B4	0.66
B5	0.99
B6	0.05
B7	0.08
B8	0.03
B9	0.6
B10	0.11

biological target: T1, HCV E1E2 antigen, isolate JFH (hepatitis C virus, isolate JFH, UniProt Q99IB8 192-383; Q99IB8 384-750); assay: ELISA, Fab on E1E2 antigen
T1 construct: also called JFH-1

Binder	OD 450 nm [OD 450 nm]
B2	0.99
B3	1.34
B4	1.2
B5	1.57
B6	0
B8	0
B9	0.88
B10	0
B11	0.45

biological target: HCV E1E2 antigen, isolate UKN2B1.1 (hepatitis C virus, isolate UKN2B1.1); assay: ELISA, Fab on E1E2 antigen

Binder	OD 450 nm [OD 450 nm]
B1	0.3
B2	0.33
B3	0.44
B4	0.29
B5	0.48
B6	0.02
B7	0.03
B8	0
B9	0.18
B10	0
B11	0.09

biological target: HCV E1E2 antigen, isolate UKN3A1.28c (hepatitis C virus, isolate UKN3A1.28c); assay: ELISA, Fab on E1E2 antigen

Binder	OD 450 nm [OD 450 nm]
B1	0.06
B2	1.08
B3	1.36
B4	1.27
B5	1.73
B6	0.48
B7	0.98
B8	0.18
B9	1.05
B10	0.33
B11	1.07

biological target: HCV E1E2 antigen, isolate UKN4.21.16 (hepatitis C virus, isolate UKN4.21.16); assay: ELISA, Fab on E1E2 antigen

Binder	OD 450 nm [OD 450 nm]
B1	1.02
B2	0.93
B3	1.09
B4	0.96
B5	1.49
B6	0.57
B7	0.62
B8	0.04
B9	0.78
B10	0.15
B11	0.99

biological target: HCV E1E2 antigen, isolate UKN5.15.7 (hepatitis C virus, isolate UKN5.15.7); assay: ELISA, Fab on E1E2 antigen

Binder	OD 450 nm [OD 450 nm]
B1	0.3
B2	0.43
B3	0.46
B4	0.37
B5	0.71
B6	0.1
B7	0.17
B8	-0.04
B9	0.25
B10	0.06
B11	0.31

biological target: HCV E1E2 antigen, isolate UKN6.5.8 (hepatitis C virus, isolate UKN6.5.8); assay: ELISA, Fab on E1E2 antigen

Binder	OD 450 nm [OD 450 nm]
B1	0.05
B2	0.29
B3	0.4
B4	0.23
B5	0.44
B6	0.02
B7	0.06
B8	0.05
B9	0.22
B10	0.03
B11	0.19
